Data as given in patent US12129308.

Biological target: Aggrecan
Test: competition ELISA (CAP) on Aggrecan; competitor not stated

B1: C010100626 (bispecific antibody, part only; not given: albumin binder and linker, not shown: small tags and cut ends)
chain, part: EVQLVESGGGLVQPGGSLRLSCAASGSTFIINVVRWYRRAPGKQRELVATISSGGNANYVDSVRGRFTISRDNSKNTVYLQMNSLRPEDTAVYYCNVPTTHYGGVYYGPYWGQGTLVTVSSEVQLVESGGGLVQPGGSLRLSCAASGSTFIINVVRWYRRAPGKQRELVATISSGGNANYVDSVRGRFTISRDNSKNTVYLQMNSLRPEDTAVYYCNVPTTHYGGVYYGPYWGQGTLVTVSS
- IC50: 0.87 nM
